Assays:
Experiment in all cases: ΔPlySs1 OD600 lysis, 1 hr
Type in all cases: cell-based
S. salivarius 9222 = test system: S. salivarius 9222
E. faecalis V583 = test system: E. faecalis V583
S. pyogenes A486 = test system: S. pyogenes A486
S. suis ST6 = test system: S. suis ST6
Procedure: (§1) Given the above experiments, the following optimal buffering conditions were employed for all further in vitro experiments with ΔPlySs1: 20 mM phosphate buffer, pH=7.8, 2 mM EDTA. A range of lysin concentrations, from 6.5-130 μg/ml, were introduced to live S. suis cells in this buffer. Three strains were considered particularly relevant: 7711, the serotype 7 strain that encodes PlySs1; 5735, the serotype 2 reference strain; and 7997, a highly virulent serotype 9 strain. In terms of bacterial viability, only the highest PlySs1-concentration (130 μg/ml) led to a >90% decrease in CFUs for 7711, S735, and 7997 after 1 hr treatment (TABLE 2). The lysin was also tested against actively-dividing cells in broth culture (strain 7711) (FIG. 20).
(§2) ΔPlySs1 was further tested against a panel of 19 other S. suis strains of diverse serotypes, as well as other species of Gram-positive bacteria. The same lysin concentrations were used as above. For each dosage, the observed lysis values after 1 hr are listed in TABLE 3 and TABLE 4, and the information is summarized graphically in FIG. 21.

S. suis ST2 = test system: S. suis ST2
Procedure: as §1, §2

S. suis ST11 = test system: S. suis ST11
Procedure: as §1, §2

S. suis ST9 = test system: S. suis ST9
Procedure: as §1, §2

S. suis ST10 = test system: S. suis ST10
Procedure: as §1, §2

S. suis ST8 = test system: S. suis ST8
Procedure: as §1, §2

S. suis 6112 (ST1) = test system: S. suis 6112 (ST1)
Procedure: as §1, §2

S. suis 8076 (ST9) = test system: S. suis 8076 (ST9)
Procedure: as §1, §2

S. suis ST7 = test system: S. suis ST7
Procedure: as §1, §2

S. suis ST13 = test system: S. suis ST13
Procedure: as §1, §2

S. suis ST14 = test system: S. suis ST14
Procedure: as §1, §2

S. suis ST1 = test system: S. suis ST1
Procedure: as §1, §2

S. suis 6388 (ST1) = test system: S. suis 6388 (ST1)
Procedure: as §1, §2

S. suis ST5 = test system: S. suis ST5
Procedure: as §1, §2

S. suis 7197 (ST7) = test system: S. suis 7197 (ST7)
Procedure: as §1, §2

S. suis 10 (ST2) = test system: S. suis 10 (ST2)
Procedure: as §1, §2

S. suis ST4 = test system: S. suis ST4
Procedure: as §1, §2

S. suis ST3 = test system: S. suis ST3
Procedure: as §1, §2

B1: ΔPlySs1: truncated PlySs1 lysin with N-terminal enzymatic and central binding domains, N-terminal 254 amino acids, SEQ ID NO:2 (protein, listed as Streptococcus suis)
chain: MTINLETSIRWMSDRVGKVSYSMDYRNGPNSYDCSSAVYYALMAGGAISAGWAVNTEYMHDWLIRNGYVLVAENKPFNAQRHDVCILGKRGYSSGAGGHVVIFVDNVNVIHCNYARNGISIDNYNQVHRGMYYYLYRPANQPSISNKSLDQLVKETLAGVHGNGDTRKASLGSQYEAVMAVINGKASASEKSDEELAREVLAGKHGAGEDRKRSLGPRYEPVQAKVNELLKAKEKPSETAKNEPQTVQFKEDGDL
- 1-hour treated/untreated OD600-ratio (S. salivarius 9222; 6.5 μg/ml): 0.80
- 1-hour treated/untreated OD600-ratio (S. salivarius 9222; 13 μg/ml): 0.76
- 1-hour treated/untreated OD600-ratio (S. salivarius 9222; 30 μg/ml): 0.56
- 1-hour treated/untreated OD600-ratio (S. salivarius 9222; 65 μg/ml): 0.53
- 1-hour treated/untreated OD600-ratio (S. salivarius 9222; 130 μg/ml): 0.37
- 1-hour treated/untreated OD600-ratio (E. faecalis V583; 6.5 μg/ml): 0.98
- 1-hour treated/untreated OD600-ratio (E. faecalis V583; 13 μg/ml): 0.93
- 1-hour treated/untreated OD600-ratio (E. faecalis V583; 30 μg/ml): 0.84
- 1-hour treated/untreated OD600-ratio (E. faecalis V583; 65 μg/ml): 0.71
- 1-hour treated/untreated OD600-ratio (E. faecalis V583; 130 μg/ml): 0.52
- 1-hour treated/untreated OD600-ratio (S. pyogenes A486; 6.5 μg/ml): 0.12
- 1-hour treated/untreated OD600-ratio (S. pyogenes A486; 13 μg/ml): 0.13
- 1-hour treated/untreated OD600-ratio (S. pyogenes A486; 30 μg/ml): 0.13
- 1-hour treated/untreated OD600-ratio (S. pyogenes A486; 65 μg/ml): 0.11
- 1-hour treated/untreated OD600-ratio (S. pyogenes A486; 130 μg/ml): 0.10
- 1-hour treated/untreated OD600-ratio (S. suis ST6; 6.5 μg/ml): 0.76
- 1-hour treated/untreated OD600-ratio (S. suis ST6; 13 μg/ml): 0.56
- 1-hour treated/untreated OD600-ratio (S. suis ST6; 30 μg/ml): 0.40
- 1-hour treated/untreated OD600-ratio (S. suis ST6; 65 μg/ml): 0.21
- 1-hour treated/untreated OD600-ratio (S. suis ST6; 130 μg/ml): 0.06
- 1-hour treated/untreated OD600-ratio (S. suis ST2; 6.5 μg/ml): 0.79
- 1-hour treated/untreated OD600-ratio (S. suis ST2; 13 μg/ml): 0.70
- 1-hour treated/untreated OD600-ratio (S. suis ST2; 30 μg/ml): 0.49
- 1-hour treated/untreated OD600-ratio (S. suis ST2; 65 μg/ml): 0.34
- 1-hour treated/untreated OD600-ratio (S. suis ST2; 130 μg/ml): 0.17
- 1-hour treated/untreated OD600-ratio (S. suis ST11; 6.5 μg/ml): 0.64
- 1-hour treated/untreated OD600-ratio (S. suis ST11; 13 μg/ml): 0.47
- 1-hour treated/untreated OD600-ratio (S. suis ST11; 30 μg/ml): 0.32
- 1-hour treated/untreated OD600-ratio (S. suis ST11; 65 μg/ml): 0.19
- 1-hour treated/untreated OD600-ratio (S. suis ST11; 130 μg/ml): 0.07
- 1-hour treated/untreated OD600-ratio (S. suis ST9; 6.5 μg/ml): 0.50
- 1-hour treated/untreated OD600-ratio (S. suis ST9; 13 μg/ml): 0.30
- 1-hour treated/untreated OD600-ratio (S. suis ST9; 30 μg/ml): 0.23
- 1-hour treated/untreated OD600-ratio (S. suis ST9; 65 μg/ml): 0.13
- 1-hour treated/untreated OD600-ratio (S. suis ST9; 130 μg/ml): 0.05
- 1-hour treated/untreated OD600-ratio (S. suis ST10; 6.5 μg/ml): 0.85
- 1-hour treated/untreated OD600-ratio (S. suis ST10; 13 μg/ml): 0.72
- 1-hour treated/untreated OD600-ratio (S. suis ST10; 30 μg/ml): 0.55
- 1-hour treated/untreated OD600-ratio (S. suis ST10; 65 μg/ml): 0.44
- 1-hour treated/untreated OD600-ratio (S. suis ST10; 130 μg/ml): 0.28
- 1-hour treated/untreated OD600-ratio (S. suis ST8; 6.5 μg/ml): 0.25
- 1-hour treated/untreated OD600-ratio (S. suis ST8; 13 μg/ml): 0.12
- 1-hour treated/untreated OD600-ratio (S. suis ST8; 30 μg/ml): 0.06
- 1-hour treated/untreated OD600-ratio (S. suis ST8; 65 μg/ml): 0.03
- 1-hour treated/untreated OD600-ratio (S. suis ST8; 130 μg/ml): 0.03
- 1-hour treated/untreated OD600-ratio (S. suis 6112 (ST1); 6.5 μg/ml): 0.14
- 1-hour treated/untreated OD600-ratio (S. suis 6112 (ST1); 13 μg/ml): 0.11
- 1-hour treated/untreated OD600-ratio (S. suis 6112 (ST1); 30 μg/ml): 0.06
- 1-hour treated/untreated OD600-ratio (S. suis 6112 (ST1); 65 μg/ml): 0.02
- 1-hour treated/untreated OD600-ratio (S. suis 6112 (ST1); 130 μg/ml): 0.01
- 1-hour treated/untreated OD600-ratio (S. suis 8076 (ST9); 6.5 μg/ml): 0.52
- 1-hour treated/untreated OD600-ratio (S. suis 8076 (ST9); 13 μg/ml): 0.40
- 1-hour treated/untreated OD600-ratio (S. suis 8076 (ST9); 30 μg/ml): 0.21
- 1-hour treated/untreated OD600-ratio (S. suis 8076 (ST9); 65 μg/ml): 0.14
- 1-hour treated/untreated OD600-ratio (S. suis 8076 (ST9); 130 μg/ml): 0.04
- 1-hour treated/untreated OD600-ratio (S. suis ST7; 6.5 μg/ml): 0.65
- 1-hour treated/untreated OD600-ratio (S. suis ST7; 13 μg/ml): 0.47
- 1-hour treated/untreated OD600-ratio (S. suis ST7; 30 μg/ml): 0.34
- 1-hour treated/untreated OD600-ratio (S. suis ST7; 65 μg/ml): 0.22
- 1-hour treated/untreated OD600-ratio (S. suis ST7; 130 μg/ml): 0.11
- 1-hour treated/untreated OD600-ratio (S. suis ST13; 6.5 μg/ml): 0.32
- 1-hour treated/untreated OD600-ratio (S. suis ST13; 13 μg/ml): 0.17
- 1-hour treated/untreated OD600-ratio (S. suis ST13; 30 μg/ml): 0.04
- 1-hour treated/untreated OD600-ratio (S. suis ST13; 65 μg/ml): 0.02
- 1-hour treated/untreated OD600-ratio (S. suis ST13; 130 μg/ml): 0.02
- 1-hour treated/untreated OD600-ratio (S. suis ST14; 6.5 μg/ml): 0.79
- 1-hour treated/untreated OD600-ratio (S. suis ST14; 13 μg/ml): 0.57
- 1-hour treated/untreated OD600-ratio (S. suis ST14; 30 μg/ml): 0.33
- 1-hour treated/untreated OD600-ratio (S. suis ST14; 65 μg/ml): 0.15
- 1-hour treated/untreated OD600-ratio (S. suis ST14; 130 μg/ml): 0.06
- 1-hour treated/untreated OD600-ratio (S. suis ST1; 6.5 μg/ml): 0.80
- 1-hour treated/untreated OD600-ratio (S. suis ST1; 13 μg/ml): 0.34
- 1-hour treated/untreated OD600-ratio (S. suis ST1; 30 μg/ml): 0.36
- 1-hour treated/untreated OD600-ratio (S. suis ST1; 65 μg/ml): 0.19
- 1-hour treated/untreated OD600-ratio (S. suis ST1; 130 μg/ml): 0.06
- 1-hour treated/untreated OD600-ratio (S. suis 6388 (ST1); 6.5 μg/ml): 0.15
- 1-hour treated/untreated OD600-ratio (S. suis 6388 (ST1); 13 μg/ml): 0.13
- 1-hour treated/untreated OD600-ratio (S. suis 6388 (ST1); 30 μg/ml): 0.06
- 1-hour treated/untreated OD600-ratio (S. suis 6388 (ST1); 65 μg/ml): 0.03
- 1-hour treated/untreated OD600-ratio (S. suis 6388 (ST1); 130 μg/ml): 0.02
- 1-hour treated/untreated OD600-ratio (S. suis ST5; 6.5 μg/ml): 0.78
- 1-hour treated/untreated OD600-ratio (S. suis ST5; 13 μg/ml): 0.59
- 1-hour treated/untreated OD600-ratio (S. suis ST5; 30 μg/ml): 0.39
- 1-hour treated/untreated OD600-ratio (S. suis ST5; 65 μg/ml): 0.22
- 1-hour treated/untreated OD600-ratio (S. suis ST5; 130 μg/ml): 0.10
- 1-hour treated/untreated OD600-ratio (S. suis 7197 (ST7); 6.5 μg/ml): 0.64
- 1-hour treated/untreated OD600-ratio (S. suis 7197 (ST7); 13 μg/ml): 0.49
- 1-hour treated/untreated OD600-ratio (S. suis 7197 (ST7); 30 μg/ml): 0.39
- 1-hour treated/untreated OD600-ratio (S. suis 7197 (ST7); 65 μg/ml): 0.16
- 1-hour treated/untreated OD600-ratio (S. suis 7197 (ST7); 130 μg/ml): 0.07
- 1-hour treated/untreated OD600-ratio (S. suis 10 (ST2); 6.5 μg/ml): 0.29
- 1-hour treated/untreated OD600-ratio (S. suis 10 (ST2); 13 μg/ml): 0.18
- 1-hour treated/untreated OD600-ratio (S. suis 10 (ST2); 30 μg/ml): 0.10
- 1-hour treated/untreated OD600-ratio (S. suis 10 (ST2); 65 μg/ml): 0.05
- 1-hour treated/untreated OD600-ratio (S. suis 10 (ST2); 130 μg/ml): 0.02
- 1-hour treated/untreated OD600-ratio (S. suis ST4; 6.5 μg/ml): 0.63
- 1-hour treated/untreated OD600-ratio (S. suis ST4; 13 μg/ml): 0.47
- 1-hour treated/untreated OD600-ratio (S. suis ST4; 30 μg/ml): 0.32
- 1-hour treated/untreated OD600-ratio (S. suis ST4; 65 μg/ml): 0.22
- 1-hour treated/untreated OD600-ratio (S. suis ST4; 130 μg/ml): 0.12
- 1-hour treated/untreated OD600-ratio (S. suis ST3; 6.5 μg/ml): 0.81
- 1-hour treated/untreated OD600-ratio (S. suis ST3; 13 μg/ml): 0.71
- 1-hour treated/untreated OD600-ratio (S. suis ST3; 30 μg/ml): 0.48
- 1-hour treated/untreated OD600-ratio (S. suis ST3; 65 μg/ml): 0.32
- 1-hour treated/untreated OD600-ratio (S. suis ST3; 130 μg/ml): 0.16

From patent publication US20140179594A1, “STREPTOCOCCUS BACTERIOPHAGE LYSINS FOR TREATMENT OF GRAM POSITIVE BACTERIA IN COMPANION ANIMALS AND LIVESTOCK” (priority 2011, published 2014)
